The labels stand for the following.
B3: ^35S-Methionine labeled CRN-6 (enzyme, C. elegans, UniProt P34508-2 18-373, looked up)
chain: AYQCKDNNGSNVDWFVFYKLPHLWNHPDNVPISNGTGFLYFDVNNKNWKLMPQGMDVENNAVYYTLQQYYNSNMNTTFSYMYNDEWPDSTIWSNSSGHAKGVTVFDQYTGFWMIHSIPKFPSKDMFRFPSNAHYYGQMGICISYNTVSLATIAQQLFYYNTFTYQFNLPQSFANQFPVLSQLKNKEYNKSPPLTSTKVLKSLGGQHFRHFAKTGEWGKDLYSDFVGPTLKSSIKVETWNHQSGDEYNLPSVCDPNHVQSTMSAKYIRLPYAIDYSSYEDHSKFVVAYSESSSKPPIPYVCIGDINRQSHQIHRGGGTMCIYDQETYFQFANIISETVPCTKATAEKVDALANNRYF
modifications: 35S-methionine labelled
B6: GST-CRN-1 (other, C. elegans, UniProt Q9N3T2 21-382, looked up)
chain: NEMKAFFGRTVAIDASMCLYQFLIAVRQDGSQLQSEDGETTSHLMGMLNRTVRMFENGVKPVYVFDGKPPDMKGGELEKRSERRAEAEKALTEAKEKGDVKEAEKFERRLVKVTKQQNDEAKRLLGLMGIPVVEAPCEAEAQCAHLVKAGKVFGTVTEDMDALTFGSTVLLRHFLAPVAKKIPIKEFNLSLALEEMKLSVEEFIDLCILLGCDYCGTIRGVGPKKAVELIRQHKNIETILENIDQNKYPPPEDWPYKRARELFLNPEVTKPEEVELTWKEADVEGVIQFLCGEKNFNEERIRNALAKLKTSRKSGTQGRIDSFFGNSTKVTCVTAATKRKAEEAEKAKKGAKKGGPPKKRAK
notes: also called CRN-1 GST-fusion protein; not shown: glutathione S-transferase tag encoded by vector pGEX4T-2
B8: GST-NUC-1 (other, C. elegans, UniProt Q17778 22-375, looked up)
chain: AFSCKDQSGNDVDWFAVYKMPIEKDDGSVTGLAGGVAWYYVDVNKKGTLTPSAKTLDDNDQAIAYTLQQYYDKQNDKTIFHVMYNDEPWGSKSTSGIKLEEILSNRVYSNYTHEDDSTSTAFGHTKGTIFFDGTSGVWLVHSVPLFPNPTKYEYPVSGHDYGQTMLCMTFKYAQLKSIGTQLFFNRPNIYSSNLPTNMAADNADLAKAIAGQYQKGQPFQSVIELETMAGYSFTNFAKSKEFNADLYDTLVAPTLKTDLVVETWRRGSEIPLDCKLTYHANDALSIHVGSTTAFSYTKDHSKMAHSADMTKPWVCIGDINRMTSQYVRGGGTTCISSSFLWKAYSVIATQNNCA
notes: also called NUC-1 GST-fusion protein; not shown: glutathione S-transferase tag encoded by vector pGEX4T-2

What all share (assay): GST pull-down, 35S-Met protein vs GST fusion; - means no detectable binding (footnote a)
The target in one assay is T1, GST-CRN-3 (C. elegans, UniProt G5EBX6 1-876).
T1 construct: also called CRN-3 GST-fusion protein; not shown: glutathione S-transferase tag encoded by vector pGEX4T-2
T1 sequence: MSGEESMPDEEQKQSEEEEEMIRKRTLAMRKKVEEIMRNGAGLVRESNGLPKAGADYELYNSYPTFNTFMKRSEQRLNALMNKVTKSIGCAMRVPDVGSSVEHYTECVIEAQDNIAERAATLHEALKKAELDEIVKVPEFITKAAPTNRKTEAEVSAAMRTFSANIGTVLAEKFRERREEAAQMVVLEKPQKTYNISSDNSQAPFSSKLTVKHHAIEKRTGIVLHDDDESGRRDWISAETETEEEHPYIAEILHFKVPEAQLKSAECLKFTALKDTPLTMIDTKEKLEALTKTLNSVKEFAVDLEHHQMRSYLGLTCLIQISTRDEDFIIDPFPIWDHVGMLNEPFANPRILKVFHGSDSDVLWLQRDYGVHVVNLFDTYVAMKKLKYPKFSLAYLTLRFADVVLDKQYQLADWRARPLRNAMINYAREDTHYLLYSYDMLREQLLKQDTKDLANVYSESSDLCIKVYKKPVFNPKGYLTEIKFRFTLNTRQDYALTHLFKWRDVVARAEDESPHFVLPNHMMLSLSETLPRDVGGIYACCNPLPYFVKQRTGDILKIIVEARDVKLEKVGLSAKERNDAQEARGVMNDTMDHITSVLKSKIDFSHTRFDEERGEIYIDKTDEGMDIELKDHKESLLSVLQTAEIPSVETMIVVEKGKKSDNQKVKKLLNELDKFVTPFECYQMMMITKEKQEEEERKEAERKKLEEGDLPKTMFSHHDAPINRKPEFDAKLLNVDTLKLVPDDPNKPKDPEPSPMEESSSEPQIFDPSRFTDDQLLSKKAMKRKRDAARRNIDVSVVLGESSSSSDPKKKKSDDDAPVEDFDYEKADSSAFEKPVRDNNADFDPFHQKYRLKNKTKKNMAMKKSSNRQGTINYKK
How it is done: (§1) GST fusion protein pull-down assays were performed as described in J. Parrish, H. Metters, L. Chen, D. Xue, Proc. Natl. Acad. Sci. U.S.A. 97, 11916 (2000). Purified GST or GST-fusion proteins (5 μg each) immobilized on glutathione sepharose beads were incubated with ³⁵S-Methionine labeled proteins at 4° C. for 2 hours. The beads were washed extensively and the bound proteins were resolved on a 12% SDS-PAGE and visualized by autoradiography. [0103] cDNAs corresponding to the ORFs were cloned into the pPD129.36 vector via its Nhe I and Xho I sites or the Xho I site alone. Full-length cDNAs were subcloned into the pGEX4T-2 vector for generating GST fusion proteins and for further protein purification and into the pcDNA3.1 vector for in vitro transcription/translation experiments.
(§2) ^aInteractions were evaluated relative to background binding of ³⁵S-Methionine labeled Luciferase to GST-fusion proteins and ³⁵S-Methionine labeled proteins to GST. “−” indicates no detectable binding, “+” indicates an interaction consistently observed above background levels, and “++” indicates a strong interaction. ^bBecause ³⁵S-Methionine labeled CRN-1 binds GST tightly, it was not possible to evaluate interactions between ³⁵S-CRN-1 and various GST-fusion proteins. ND, not determined.

The target of the assay “GST-NUC-1” is B8. How it is done: as §1, §2
The target in another assay is T2, GST-CRN-6 (C. elegans, UniProt P08515 1-218 = GST; P34508 1-373).
T2 construct: Two crn-6 cDNAs (700 bp and 1.1 kb) were isolated; the longer one made the GST fusion; also called CRN-6 GST-fusion protein
The procedure: as §1, §2

For assay [1], the target named is T3, GST (glutathione-S transferase alone) (UniProt P08515 1-218 = GST).
T3 construct: Purified GST used as negative control bait on glutathione sepharose beads; also called OST
T3 sequence (P08515 whole entry): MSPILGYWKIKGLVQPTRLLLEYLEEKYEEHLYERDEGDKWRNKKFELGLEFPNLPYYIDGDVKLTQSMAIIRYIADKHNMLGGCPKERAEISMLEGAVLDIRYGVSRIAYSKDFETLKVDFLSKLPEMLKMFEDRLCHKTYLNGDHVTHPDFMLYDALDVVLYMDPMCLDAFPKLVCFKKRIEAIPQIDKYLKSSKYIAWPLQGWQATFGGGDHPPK
How it is done: as §1, §2

The target of the assay “GST-CRN-1” is B6. The procedure:
as §1, §2

For assay [2], the target named is B3. The procedure: as §1, §2
Assay [3] addresses T4, ^35S-Methionine labeled CRN-3 (C. elegans, UniProt G5EBX6 1-876).
T4 sequence: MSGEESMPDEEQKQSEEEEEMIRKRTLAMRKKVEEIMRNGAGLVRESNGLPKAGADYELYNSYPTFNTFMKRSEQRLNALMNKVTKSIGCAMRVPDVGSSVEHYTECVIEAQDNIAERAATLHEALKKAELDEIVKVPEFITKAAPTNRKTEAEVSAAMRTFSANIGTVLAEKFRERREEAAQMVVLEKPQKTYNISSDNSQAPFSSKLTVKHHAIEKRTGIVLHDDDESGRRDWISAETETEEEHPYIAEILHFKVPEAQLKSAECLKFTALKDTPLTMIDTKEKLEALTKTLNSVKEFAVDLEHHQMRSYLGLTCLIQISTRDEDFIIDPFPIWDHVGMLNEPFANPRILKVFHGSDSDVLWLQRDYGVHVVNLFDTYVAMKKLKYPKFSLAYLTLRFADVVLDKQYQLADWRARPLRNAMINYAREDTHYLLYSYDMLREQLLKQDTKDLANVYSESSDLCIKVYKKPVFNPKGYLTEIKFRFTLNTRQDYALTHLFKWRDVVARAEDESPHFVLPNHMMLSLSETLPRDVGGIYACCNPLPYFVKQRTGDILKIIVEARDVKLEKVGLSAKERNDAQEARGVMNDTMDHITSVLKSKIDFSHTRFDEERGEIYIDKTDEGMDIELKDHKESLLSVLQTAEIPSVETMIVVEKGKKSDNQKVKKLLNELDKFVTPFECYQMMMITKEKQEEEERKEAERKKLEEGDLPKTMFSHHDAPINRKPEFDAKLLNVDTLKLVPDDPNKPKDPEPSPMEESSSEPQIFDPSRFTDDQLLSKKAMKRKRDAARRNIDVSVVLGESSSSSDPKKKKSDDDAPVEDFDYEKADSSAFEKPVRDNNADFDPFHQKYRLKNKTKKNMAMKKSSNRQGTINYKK
How it is done:
as §1, §2

B1: ^35S-Methionine labeled CYP-13 (enzyme)
chain: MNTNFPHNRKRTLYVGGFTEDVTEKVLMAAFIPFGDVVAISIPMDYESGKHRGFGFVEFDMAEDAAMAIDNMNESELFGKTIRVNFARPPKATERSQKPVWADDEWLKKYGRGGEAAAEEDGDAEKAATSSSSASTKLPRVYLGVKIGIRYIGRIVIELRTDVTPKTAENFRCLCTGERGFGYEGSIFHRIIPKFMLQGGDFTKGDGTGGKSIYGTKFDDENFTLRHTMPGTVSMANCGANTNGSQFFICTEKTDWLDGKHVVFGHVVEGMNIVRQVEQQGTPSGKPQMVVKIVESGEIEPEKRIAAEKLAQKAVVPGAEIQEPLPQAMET
notes: also called ^35S-CYP-13; CPY-13
Turning to B1, the binding result (with GST-CRN-3; in the assay with GST-NUC-1; with GST-CRN-6; in assay [1]) was “no binding” each time.

B2: ^35S-Methionine labeled CRN-4 (enzyme, C. elegans, UniProt Q10905 1-298, looked up)
chain: MAYQHCPFDTLLILDFETTSDAANQDYPCEVIQFAIVAYDVPNDKIREDISFNKYVKPVLNRTLTKNCVDFTGIPQRSIDTADTFDVVYEQFQQWLITLGLEEGKFAFVCDSRQDLWRIAQYQMKLSNIQMPAFFRQYINLYKIFTNEMDRMGPKELSATTNIGKMNEYYDLPTIGRAHDAMDDCLNIATILQRMINMGAKVTVNELLTCCASWRRQPLVYNKEWRSSFMDAGKIFERVLPLVVTTIRAGDFRLEMYGVCRYCRKGMDVCGTSHQQTPHDLYKNEEDPIHFAKIAGYY
modifications: 35S-methionine labelled
In the case of B2, the binding result in the assay with GST-CRN-3 and in the assay with GST-CRN-6 was “no binding” in each case.
As to B3, the binding result with GST-CRN-1, in the assay with GST-CRN-3 and with GST-CRN-6 was “no binding” in each case.

B4: ^35S-Methionine labeled CRN-5 (enzyme, C. elegans)
chain: MAGRLREMRCELSFLKNADGSACFSQGATCIWASCSGPGDVHASKASDEAMTLDISYRANCGDNKFNVLNNIIHSTLSNAINLELFPHTTISVTVHGIQDDGSMGAVAINGACFALLDNGMPFETVFCGVLIVRVKDELIIDPTAKQEAASTGRVLFSVCKGSDGHPEVCAMDAIGHWDFIQLEAAWSLAQPSASAIFDFYKTVMKRKLSVDEQ
Regarding B4, the binding result (with GST-CRN-1; with GST-CRN-6; in assay [1]) was “no binding” throughout.

B5: GST-CRN-5 (other)
chain: MAGRLREMRCELSFLKNADGSACFSQGATCIWASCSGPGDVHASKASDEAMTLDISYRANCGDNKFNVLNNIIHSTLSNAINLELFPHTTISVTVHGIQDDGSMGAVAINGACFALLDNGMPFETVFCGVLIVRVKDELIIDPTAKQEAASTGRVLFSVCKGSDGHPEVCAMDAIGHWDFIQLEAAWSLAQPSASAIFDFYKTVMKRKLSVDEQ
notes: also called CRN-5 GST-fusion protein; not shown: GST carrier and the linker of vector pGEX4T-2
Turning to B5, the binding result in assay [2] is “no binding”.
Take B6: the binding result in assay [3] is listed as “no binding”.

B7: ^35S-Methionine labeled NUC-1 (enzyme, C. elegans, UniProt Q17778 22-375, looked up)
chain: AFSCKDQSGNDVDWFAVYKMPIEKDDGSVTGLAGGVAWYYVDVNKKGTLTPSAKTLDDNDQAIAYTLQQYYDKQNDKTIFHVMYNDEPWGSKSTSGIKLEEILSNRVYSNYTHEDDSTSTAFGHTKGTIFFDGTSGVWLVHSVPLFPNPTKYEYPVSGHDYGQTMLCMTFKYAQLKSIGTQLFFNRPNIYSSNLPTNMAADNADLAKAIAGQYQKGQPFQSVIELETMAGYSFTNFAKSKEFNADLYDTLVAPTLKTDLVVETWRRGSEIPLDCKLTYHANDALSIHVGSTTAFSYTKDHSKMAHSADMTKPWVCIGDINRMTSQYVRGGGTTCISSSFLWKAYSVIATQNNCA
modifications: 35S-methionine labelled
Consider B7, for which the binding result in the assay with GST-CRN-1, in the assay with GST-NUC-1 and with GST-CRN-6 was “no binding” each time.
On to B8, for which, in assay [2], the binding result was “no binding”.

These data come from patent publication US20050142568A1 (published 2005).
